Reference: patent US20260023068A1, “USE OF A FBXO42 SPECIFIC INHIBITOR IN TREATING NOTCH SIGNALING-DEPENDENT DISEASE” (WESTLAKE UNIVERSITY, priority 2022, published 2026)

What was measured:
[1] = target: T1, CUL1 (UniProt Q13616 1-776); experiment: TAP-MS with FBXO42 as the bait in HEK293T cells
T1 construct: also called Cullin-1
Procedure: TAP purification was performed as described previously (W Bian et al., Low-density-lipoprotein-receptor-related protein 1 mediates Notch pathway activation. Dev Cell 56, 2902-2919 e2908 (2021)). Briefly, 1×10⁸ HEK293T cells stably expressing cSFB-RBPJ or FBXO42 were lysed in 5 ml of NETN buffer (with protease inhibitors) at 4° C. for 30 min followed by TurboNuclease treatment. The lysate was then incubated with streptavidin-conjugated beads (Thermo Fisher Scientific, Waltham, MA) for 2 h at 4° C. After washing with NETN buffer, the bound proteins were eluted with NETN buffer containing 2 mg/mL biotin (Sigma, St. Louis, MO) for 2 h at 4° C. The eluates were then incubated with S-protein beads (EMD Millipore, Burlington, […]) for 4 h. The beads were washed three times with NETN buffer and subjected to SDS-PAGE, followed by Coomassie blue staining. The whole band was excised and subjected to in-gel trypsin digestion and MS analysis.
FBXO42 is a substrate-recognition component of the SKP1-CUL1-F-box protein (SCF)-type E3 ligase complex, which has been previously reported to promote p53 ubiquitination and degradation (L. Sun et al., JFK, a Kelch domain-containing F-box protein, links the SCF complex to p53 regulation. Proc Natl Acad Sci USA 106,10195-10200 (2009)). […]

[2] = target: cSFB-tagged RBPJ (recombination signal-binding protein of immunoglobulin kappa J region with C-terminal SFB tag), Q06330; experiment: biomolecular interaction kinetics with purified proteins; RBPJ at 225 nM loaded on SA probe, FBXO42 at 19.5-625 nM; conditions: remark: other sources report otherwise
[3] = target: T2, RBPJ (Homo sapiens, UniProt Q06330); experiment: Biomolecular interaction analysis with purified recombinant RBPJ and FBXO42 proteins; assay type: binding; conditions: in vitro, RBPJ 225 nM on SA probe, FBXO42 19.5 nM-625 nM (FIG. 3I)
T2 construct: SFB (cSFB) (C); made in house; host or cells: 293F cells
Description: (A) Interaction network of FBXO42. Top 50 interactors identified in TAP-MS was shown. (B) KEGG enrichment analysis of preys acquired in FBXO42 tandem-affinity purification (TAP)-MS. The x-axis represents gene ratio=count/set size. The size of the dots represents the number of genes associated with the GO term and the color of the dots represent the adjusted P-values. (C) Circos plot showing overlapping RBPJ and FBXO42 preys. Purple lines link the genes that shared by RBPJ and FBXO42. Blue lines link different genes enriched in the same ontology term. (D and E) HEK293T cell lysates were incubated with IgG control and antibodies against FBXO42 (D) or RBPJ (E). Five percent lysate was used as the input control. Blots with antibodies recognizing RBPJ, FBXO42 and Actin are shown. (F and G) HEK293T cells were cotransfected with Myc-tagged FBXO42 and cSFB-tagged RBPJ, as indicated. The cell lysates were incubated with S beads (F) or an anti-MYC antibody (G). Five percent lysate was used as the input control. Blots with antibodies recognizing the FLAG and MYC epitope tags and Actin are shown. (H) Coomassie blue staining of cSFB-tagged RBPJ and FLAG-FBXO42 proteins purified from 293F cells. (I) Biomolecular interaction kinetics curve showing the binding affinity between purified RBPJ and FBXO42 proteins. The RBPJ was used at 225 nM for binding to SA probe. […]

cSFB-tagged RBPJ (recombination signal-binding protein of immunoglobulin kappa J region with C-terminal SFB tag), Q06330, sequence (Q06330 whole entry): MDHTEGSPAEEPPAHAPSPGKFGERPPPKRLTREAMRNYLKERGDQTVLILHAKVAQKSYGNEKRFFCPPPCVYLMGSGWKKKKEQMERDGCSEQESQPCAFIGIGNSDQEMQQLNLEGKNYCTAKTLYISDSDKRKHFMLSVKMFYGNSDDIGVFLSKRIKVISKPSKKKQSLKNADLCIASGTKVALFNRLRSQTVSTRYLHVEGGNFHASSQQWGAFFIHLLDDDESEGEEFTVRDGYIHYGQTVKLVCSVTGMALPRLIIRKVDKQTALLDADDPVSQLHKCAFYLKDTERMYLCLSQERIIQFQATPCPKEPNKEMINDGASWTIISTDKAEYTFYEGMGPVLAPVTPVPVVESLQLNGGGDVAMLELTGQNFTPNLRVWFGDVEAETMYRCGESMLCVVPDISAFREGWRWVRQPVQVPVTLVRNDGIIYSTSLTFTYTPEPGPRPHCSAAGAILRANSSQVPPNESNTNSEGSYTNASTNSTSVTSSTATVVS
T2 sequence (Q06330 whole entry): as above
T1 sequence (Q13616 whole entry): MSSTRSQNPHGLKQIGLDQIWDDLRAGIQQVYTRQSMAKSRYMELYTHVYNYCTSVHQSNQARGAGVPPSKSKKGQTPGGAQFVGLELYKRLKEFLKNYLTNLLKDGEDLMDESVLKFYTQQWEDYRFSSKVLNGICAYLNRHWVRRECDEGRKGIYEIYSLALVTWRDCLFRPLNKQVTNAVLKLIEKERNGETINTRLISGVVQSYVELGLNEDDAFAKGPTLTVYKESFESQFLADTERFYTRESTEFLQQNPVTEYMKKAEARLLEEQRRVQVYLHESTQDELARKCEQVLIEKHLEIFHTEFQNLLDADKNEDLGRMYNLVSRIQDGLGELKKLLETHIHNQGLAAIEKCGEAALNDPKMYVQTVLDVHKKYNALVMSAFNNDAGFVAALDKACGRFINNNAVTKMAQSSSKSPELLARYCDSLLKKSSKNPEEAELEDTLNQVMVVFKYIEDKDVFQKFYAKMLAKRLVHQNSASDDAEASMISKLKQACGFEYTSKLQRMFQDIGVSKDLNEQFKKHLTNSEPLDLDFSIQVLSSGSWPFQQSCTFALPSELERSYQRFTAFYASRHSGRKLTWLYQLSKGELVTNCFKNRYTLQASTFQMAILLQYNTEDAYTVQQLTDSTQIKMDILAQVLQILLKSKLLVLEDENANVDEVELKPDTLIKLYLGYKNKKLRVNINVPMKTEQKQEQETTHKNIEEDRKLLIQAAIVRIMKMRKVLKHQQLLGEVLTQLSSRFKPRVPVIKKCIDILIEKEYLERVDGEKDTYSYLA

binding result [1] | Kd [2] [nM] | Kd [3] [nM] | Molecule
binds | 47 | – | cSFB-FBXO42 (FBXO42 with C-terminal SFB tag) (other, UniProt Q6P3S6 1-717, looked up, Stably expressed in HEK293T cells as bait for TAP-MS; also called FBXO42 bait; not shown: C-terminal SFB tag) MASSSDSEDDSFMAVDQEETVLEGTMDQDEEPHPVLEAEETRHNRSMSELPEEVLEYILSFLSPYQEHKTAALVCKQWYRLIKGVAHQCYHGFMKAVQEGNIQWESRTYPYPGTPITQRFSHSACYYDANQSMYVFGGCTQSSCNAAFNDLWRLDLNSKEWIRPLASGSYPSPKAGATLVVYKDLLVLFGGWTRPSPYPLHQPERFFDEIHTYSPSKNWWNCIVTTHGPPPMAGHSSCVIDDKMIVFGGSLGSRQMSNDVWVLDLEQWAWSKPNISGPSPHPRGGQSQIVIDDATILILGGCGGPNALFKDAWLLHMHSGPWAWQPLKVENEEHGAPELWCHPACRVGQCVVVFSQAPSGRAPLSPSLNSRPSPISATPPALVPETREYRSQSPVRSMDEAPCVNGRWGTLRPRAQRQTPSGSREGSLSPARGDGSPILNGGSLSPGTAAVGGSSLDSPVQAISPSTPSAPEGYDLKIGLSLAPRRGSLPDQKDLRLGSIDLNWDLKPASSSNPMDGMDNRTVGGSMRHPPEQTNGVHTPPHVASALAGAVSPGALRRSLEAIKAMSSKGPSASAALSPPLGSSPGSPGSQSLSSGETVPIPRPGPAQGDGHSLPPIARRLGHHPPQSLNVGKPLYQSMNCKPMQMYVLDIKDTKEKGRVKWKVFNSSSVVGPPETSLHTVVQGRGELIIFGGLMDKKQNVKYYPKTNALYFVRAKR
– | – | 47 | FBXO42: purified recombinant F-box protein 42, substrate-recognition component of the SCF-type E3 ligase complex (protein, left off: small tags and cut ends, purified recombinant F-box protein 42, substrate-recognition component of the SCF-type E3 ligase complex) MASSSDSEDDSFMAVDQEETVLEGTMDQDEEPHPVLEAEETRHNRSMSELPEEVLEYILSFLSPYQEHKTAALVCKQWYRLIKGVAHQCYHGFMKAVQEGNIQWESRTYPYPGTPITQRFSHSACYYDANQSMYVFGGCTQSSCNAAFNDLWRLDLNSKEWIRPLASGSYPSPKAGATLVVYKDLLVLFGGWTRPSPYPLHQPERFFDEIHTYSPSKNWWNCIVTTHGPPPMAGHSSCVIDDKMIVFGGSLGSRQMSNDVWVLDLEQWAWSKPNISGPSPHPRGGQSQIVIDDATILILGGCGGPNALFKDAWLLHMHSGPWAWQPLKVENEEHGAPELWCHPACRVGQCVVVFSQAPSGRAPLSPSLNSRPSPISATPPALVPETREYRSQSPVRSMDEAPCVNGRWGTLRPRAQRQTPSGSREGSLSPARGDGSPILNGGSLSPGTAAVGGSSLDSPVQAISPSTPSAPEGYDLKIGLSLAPRRGSLPDQKDLRLGSIDLNWDLKPASSSNPMDGMDNRTVGGSMRHPPEQTNGVHTPPHVASALAGAVSPGALRRSLEAIKAMSSKGPSASAALSPPLGSSPGSPGSQSLSSGETVPIPRPGPAQGDGHSLPPIARRLGHHPPQSLNVGKPLYQSMNCKPMQMYVLDIKDTKEKGRVKWKVFNSSSVVGPPETSLHTVVQGRGELIIFGGLMDKKQNVKYYPKTNALYFVRAKR
